Common to all, as to conditions: both partners purified
The target of experiment [1] is T1, Mus musculus Elp123 subcomplex (Mus musculus, UniProt Q7TT37 1-1333; Q91WG4 1-831; Q9CZX0 1-547).
T1 construct: Elp1, mouse, ORF; Elp2, mouse, ORF; Elp3, mouse, ORF; Gel filtration at about 610 kDa; also called MmElp123; mouse Elp123; source: Super Sf9-1 insect cells (baculovirus, biGBac), purified (StrepTrap, heparin, Superose 6); not shown: Twin-Strep-tag, C-terminal, kept; copies: 2 + 2 + 2
The experiment in a line: cryo-EM structure; MmElongator reconstituted from purified MmElp123 and MmElp456 and re-purified by gel filtration, 5.9 Å. (In general: Size exclusion chromatography separates by hydrodynamic size, large species first.)

Experiment [2] concerns the target T2, Saccharomyces cerevisiae Elp1 (Saccharomyces cerevisiae, UniProt Q06706 1-1349).
T2 construct: Elp1, S. cerevisiae, full-length ORF; also called ScElp1; source: S. cerevisiae DS1-2b, overexpressed, purified within ScElongator
T2 sequence (looked up): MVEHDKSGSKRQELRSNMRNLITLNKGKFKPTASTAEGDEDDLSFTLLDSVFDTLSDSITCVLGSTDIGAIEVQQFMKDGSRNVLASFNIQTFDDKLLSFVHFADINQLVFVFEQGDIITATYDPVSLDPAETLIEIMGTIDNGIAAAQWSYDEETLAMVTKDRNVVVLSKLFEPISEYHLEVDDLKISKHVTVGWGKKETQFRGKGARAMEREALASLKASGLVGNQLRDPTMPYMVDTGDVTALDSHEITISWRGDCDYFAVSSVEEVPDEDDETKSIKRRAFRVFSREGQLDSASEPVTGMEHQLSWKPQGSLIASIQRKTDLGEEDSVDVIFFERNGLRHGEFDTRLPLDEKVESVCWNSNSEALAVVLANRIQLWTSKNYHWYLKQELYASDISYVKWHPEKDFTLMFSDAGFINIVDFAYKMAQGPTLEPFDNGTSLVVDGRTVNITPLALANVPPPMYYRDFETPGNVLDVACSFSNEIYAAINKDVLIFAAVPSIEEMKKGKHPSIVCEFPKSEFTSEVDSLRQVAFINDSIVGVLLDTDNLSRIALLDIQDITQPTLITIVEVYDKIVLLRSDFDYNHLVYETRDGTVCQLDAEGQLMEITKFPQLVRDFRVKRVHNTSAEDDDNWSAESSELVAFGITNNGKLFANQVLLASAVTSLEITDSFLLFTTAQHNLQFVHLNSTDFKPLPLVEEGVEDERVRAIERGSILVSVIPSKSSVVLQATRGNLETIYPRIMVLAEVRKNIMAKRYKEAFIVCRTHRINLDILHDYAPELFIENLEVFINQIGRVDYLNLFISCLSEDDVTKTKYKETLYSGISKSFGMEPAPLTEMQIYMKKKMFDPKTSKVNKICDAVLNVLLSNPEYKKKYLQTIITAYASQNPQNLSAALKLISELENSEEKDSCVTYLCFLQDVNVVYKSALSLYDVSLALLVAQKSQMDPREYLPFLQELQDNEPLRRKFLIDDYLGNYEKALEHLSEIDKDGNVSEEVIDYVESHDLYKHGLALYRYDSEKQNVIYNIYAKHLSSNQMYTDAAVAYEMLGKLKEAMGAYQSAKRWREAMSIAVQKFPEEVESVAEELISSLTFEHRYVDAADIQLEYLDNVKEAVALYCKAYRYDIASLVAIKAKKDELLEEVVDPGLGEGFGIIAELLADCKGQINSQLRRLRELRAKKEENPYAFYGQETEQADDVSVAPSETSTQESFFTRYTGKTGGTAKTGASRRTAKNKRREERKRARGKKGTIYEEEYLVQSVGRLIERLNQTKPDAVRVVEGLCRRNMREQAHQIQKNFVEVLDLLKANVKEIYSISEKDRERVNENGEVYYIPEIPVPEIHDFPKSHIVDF
Put plainly: cryo-EM structure; ScElp123 with yeast tRNA Ala UGC (3-5 molar excess, 15 min on ice), 3.96 Å.

Experiment [3] addresses T3, Saccharomyces cerevisiae Elp2 (Saccharomyces cerevisiae, UniProt P42935 1-788).
T3 construct: Elp2, S. cerevisiae, full-length ORF; also called ScElp2; source: S. cerevisiae DS1-2b, overexpressed, purified within ScElongator
T3 sequence (looked up): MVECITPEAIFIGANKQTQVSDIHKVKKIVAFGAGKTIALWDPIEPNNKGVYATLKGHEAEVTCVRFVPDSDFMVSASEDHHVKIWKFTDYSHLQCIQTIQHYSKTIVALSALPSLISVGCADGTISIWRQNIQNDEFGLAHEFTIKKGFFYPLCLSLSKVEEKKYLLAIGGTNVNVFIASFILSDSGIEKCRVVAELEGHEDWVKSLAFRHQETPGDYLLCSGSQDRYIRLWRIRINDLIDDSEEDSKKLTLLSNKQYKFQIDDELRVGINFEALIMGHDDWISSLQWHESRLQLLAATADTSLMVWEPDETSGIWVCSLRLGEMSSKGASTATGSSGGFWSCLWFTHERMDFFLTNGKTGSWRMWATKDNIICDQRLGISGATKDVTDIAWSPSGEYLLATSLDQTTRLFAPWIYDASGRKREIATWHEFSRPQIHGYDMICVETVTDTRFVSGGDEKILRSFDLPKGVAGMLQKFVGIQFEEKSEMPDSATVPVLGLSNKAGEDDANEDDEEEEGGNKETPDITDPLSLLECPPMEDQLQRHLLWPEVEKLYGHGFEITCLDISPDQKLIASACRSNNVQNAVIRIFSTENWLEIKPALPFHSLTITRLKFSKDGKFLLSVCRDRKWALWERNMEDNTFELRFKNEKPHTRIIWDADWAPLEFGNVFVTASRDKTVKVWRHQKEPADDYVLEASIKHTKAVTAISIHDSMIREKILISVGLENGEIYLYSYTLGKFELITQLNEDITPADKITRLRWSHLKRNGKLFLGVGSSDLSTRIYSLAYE
Described as above.

This is an account of results in publication PMC10018365, “Cryo-EM structure of the fully assembled Elongator complex” (Nucleic Acids Research, 2023).

T1 sequence (Q7TT37 whole entry, chain 1 of 3): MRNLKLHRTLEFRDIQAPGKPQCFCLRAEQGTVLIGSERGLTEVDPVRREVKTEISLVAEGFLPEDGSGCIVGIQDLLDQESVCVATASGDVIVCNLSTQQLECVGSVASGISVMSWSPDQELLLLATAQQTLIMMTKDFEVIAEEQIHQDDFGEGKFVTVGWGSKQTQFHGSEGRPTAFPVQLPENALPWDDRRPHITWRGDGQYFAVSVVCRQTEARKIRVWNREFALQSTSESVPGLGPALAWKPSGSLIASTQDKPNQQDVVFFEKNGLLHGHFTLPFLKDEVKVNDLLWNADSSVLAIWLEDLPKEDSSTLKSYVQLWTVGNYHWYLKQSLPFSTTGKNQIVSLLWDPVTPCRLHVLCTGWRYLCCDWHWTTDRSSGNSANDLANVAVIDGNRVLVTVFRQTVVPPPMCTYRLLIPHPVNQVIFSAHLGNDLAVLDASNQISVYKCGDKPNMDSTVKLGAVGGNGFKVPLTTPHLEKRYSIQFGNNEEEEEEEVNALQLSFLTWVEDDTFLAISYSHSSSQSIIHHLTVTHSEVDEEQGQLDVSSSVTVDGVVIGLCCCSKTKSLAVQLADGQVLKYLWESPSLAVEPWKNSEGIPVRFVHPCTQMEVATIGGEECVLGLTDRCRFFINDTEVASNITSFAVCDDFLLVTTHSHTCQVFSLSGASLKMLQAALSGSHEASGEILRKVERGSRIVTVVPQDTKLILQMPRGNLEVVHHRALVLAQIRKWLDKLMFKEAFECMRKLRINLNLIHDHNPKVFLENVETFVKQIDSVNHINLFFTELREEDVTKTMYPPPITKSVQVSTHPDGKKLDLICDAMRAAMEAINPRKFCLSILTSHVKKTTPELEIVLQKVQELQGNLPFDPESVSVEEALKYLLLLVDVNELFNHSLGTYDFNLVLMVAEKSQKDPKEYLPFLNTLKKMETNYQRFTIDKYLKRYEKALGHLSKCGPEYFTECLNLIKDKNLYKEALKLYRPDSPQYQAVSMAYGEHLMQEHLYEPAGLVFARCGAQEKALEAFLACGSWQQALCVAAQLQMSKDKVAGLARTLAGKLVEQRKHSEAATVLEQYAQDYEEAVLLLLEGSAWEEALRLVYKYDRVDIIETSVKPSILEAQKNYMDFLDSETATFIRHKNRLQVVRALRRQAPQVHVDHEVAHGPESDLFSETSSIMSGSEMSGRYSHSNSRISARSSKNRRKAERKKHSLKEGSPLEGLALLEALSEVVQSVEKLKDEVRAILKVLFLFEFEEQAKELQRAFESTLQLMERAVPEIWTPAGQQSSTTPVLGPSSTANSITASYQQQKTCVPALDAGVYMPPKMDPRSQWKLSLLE
T1 sequence (Q91WG4 whole entry, chain 2 of 3): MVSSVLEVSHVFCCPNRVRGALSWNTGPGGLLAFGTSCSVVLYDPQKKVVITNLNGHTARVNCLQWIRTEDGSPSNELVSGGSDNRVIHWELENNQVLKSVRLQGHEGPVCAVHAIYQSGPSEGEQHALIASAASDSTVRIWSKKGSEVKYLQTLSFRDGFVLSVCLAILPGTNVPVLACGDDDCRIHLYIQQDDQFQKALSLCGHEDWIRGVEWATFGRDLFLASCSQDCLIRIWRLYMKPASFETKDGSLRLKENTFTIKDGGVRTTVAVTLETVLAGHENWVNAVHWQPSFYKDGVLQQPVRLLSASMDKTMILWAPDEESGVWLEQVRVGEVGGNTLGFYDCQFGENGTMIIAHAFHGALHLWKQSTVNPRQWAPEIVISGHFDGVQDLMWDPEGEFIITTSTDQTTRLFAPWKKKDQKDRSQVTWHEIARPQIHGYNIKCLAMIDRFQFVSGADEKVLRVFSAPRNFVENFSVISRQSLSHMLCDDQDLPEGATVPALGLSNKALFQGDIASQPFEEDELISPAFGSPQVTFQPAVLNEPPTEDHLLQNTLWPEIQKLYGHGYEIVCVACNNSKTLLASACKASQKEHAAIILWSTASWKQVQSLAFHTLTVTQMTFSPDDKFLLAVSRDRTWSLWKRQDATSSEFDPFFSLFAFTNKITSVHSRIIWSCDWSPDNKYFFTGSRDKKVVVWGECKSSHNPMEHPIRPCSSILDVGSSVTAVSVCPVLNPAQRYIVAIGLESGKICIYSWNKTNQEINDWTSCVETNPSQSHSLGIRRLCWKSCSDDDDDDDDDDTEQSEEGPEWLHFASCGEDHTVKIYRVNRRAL
T1 sequence (Q9CZX0 whole entry, chain 3 of 3): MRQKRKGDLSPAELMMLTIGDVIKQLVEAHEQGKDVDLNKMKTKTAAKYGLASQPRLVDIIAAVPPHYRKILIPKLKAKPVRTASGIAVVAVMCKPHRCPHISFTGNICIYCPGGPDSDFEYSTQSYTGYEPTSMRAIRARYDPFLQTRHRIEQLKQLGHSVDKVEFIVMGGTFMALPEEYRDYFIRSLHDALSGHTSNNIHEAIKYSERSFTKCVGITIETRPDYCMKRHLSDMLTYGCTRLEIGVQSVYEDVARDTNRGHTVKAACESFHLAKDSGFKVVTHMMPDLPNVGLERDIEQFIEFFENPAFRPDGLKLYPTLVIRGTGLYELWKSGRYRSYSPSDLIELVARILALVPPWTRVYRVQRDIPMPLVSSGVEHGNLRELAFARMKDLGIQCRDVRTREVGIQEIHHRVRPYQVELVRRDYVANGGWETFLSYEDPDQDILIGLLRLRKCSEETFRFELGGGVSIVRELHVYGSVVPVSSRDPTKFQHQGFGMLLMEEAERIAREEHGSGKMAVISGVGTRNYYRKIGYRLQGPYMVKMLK

B1: Mus musculus Elp456 subcomplex (complex)
chain 1: MAAADTCGAGTLSSRSVASEAGQGGTSSFQRKGKASGGPGGGPRLLSIAGTRPSVRNGQLLVSTGLPALDQLLGGGLAVGTLLLIEEDKYNIYSPLLFKYFMAEGIINGHTLLVASAKENPAKILQELPAPLLDDNSKKELEDVHSAKTPEPNVNMKIAWRYQLQPKMEVGPVSSSRFGHYYDLSKRIPWELLQSSKWHGFFLPEHISPDLKGESCFLSCGYMRLLEFIQKSVYAEGFDGANPQKKQKNILRIGIQNLGSPLWGDDICCKENCDNNHRLTKFLYILRGLLRSSLSACIITMPAHLVQNKSITTRVRNLSDTVVGLESFIGSERETNPLYKDYHGLIHIRKIPRLNNLTCDESDVKDLAFKLKRKLFTIERLHLPPDLSDTVGRSSKQDLAASTARLGAGCSSMAEGKKHLDF
chain 2: MLDSLLAIGGLVLLRDSVEWEGRSLLKALIKKSALRGEQVHVLGCEVSEEEFREGFDSDVNSRLVYHDLFRDPLNWSKPGEAVPEGPLKALRSMCKRTDHGSVTIALDSLSWLLCHIPCVTLCQALHALSQQNGDPGDNSLVEQVRVLGLLHEELHGPGSMGALNTLAHTEVTLSGKVDQTSASILCRRPQQRATYQTWWFSVLPDFSLTLHEGLPLRSELHPDHHTTQVDPTAHLTFNLHLSKKEREARDSLTLPFQFSSEKQKALLHPVPSRTTGHIFYEPDAFDDVDPEDPDDDLDI
chain 3: MFPELNNLLSTTPDKTEQGTLTLLCDAKTDGSFLVHHFLSFYLKANCKVCFVALVQSFSHYNIVGQKLGVSLTAARDRGQLVFLEGLKSSVEVLFHSQDEPHPLQFLREAGTGNLQSLYTFIQDTLKPADSEESPWKYPVLLVDNLSVLLSLGVGAVAVLDFMQYCRATVCCELKGNVVALVHDTEGATDEGNDTLLNGLSHQSHLILRAEGLATGFCKDVHGQLSILWRRPSRSTAQRAQSLTYQYKIQDKNVSFFAKGMSPAVL
notes: Elp4, mouse, ORF; Elp5, mouse, ORF; Elp6, mouse, ORF; Gel filtration at about 220 kDa; also called MmElp456; mouse Elp456; source: Hi-5 insect cells (baculovirus, biGBac), purified (IgG Sepharose with TEV elution, Superose 6); not shown: FLAG, C-terminal, kept; Protein A, C-terminal, cleaved; copies: 2 + 2 + 2
As for B1, in experiment [1], the “stoichiometry N” value amounted to 1.

B2: Saccharomyces cerevisiae Elp3 (enzyme, UniProt Q02908 1-557, looked up)
chain: MARHGKGPKTNKKKLAPEKERFIQCCADITLELTDSLTSGTTREINLNGLITKYSKKYKLKQQPRLTDIINSIPDQYKKYLLPKLKAKPVRTASGIAVVAVMCKPHRCPHIAYTGNICVYCPGGPDSDFEYSTQSYTGYEPTSMRAIRARYDPYEQARGRVEQLKQLGHSIDKVEYVLMGGTFMSLPKEYREDFIVKLHNALSGFNGNDIDEAILYSQQSLTKCVGITIETRPDYCTQTHLDDMLKYGCTRLEIGVQSLYEDVARDTNRGHTVRSVCETFAVSKDAGYKVVSHMMPDLPNVGMERDIEQFKEYFENPDFRTDGLKIYPTLVIRGTGLYELWKTGRYKSYSANALVDLVARILALVPPWTRIYRVQRDIPMPLVTSGVDNGNLRELALARMKDLGTTCRDVRTREVGIQEVHHKVQPDQVELIRRDYYANGGWETFLSYEDPKKDILIGLLRLRKASKKYTYRKEFTSQRTSIVRELHVYGSVVPLHSRDPRKFQHQGFGTLLMEEAERIAKEEHGSEKISVISGVGVRNYYGKLGYELDGPYMSKRI
notes: Elp3, S. cerevisiae, full-length ORF; also called ScElp3; source: S. cerevisiae DS1-2b, overexpressed, purified within ScElongator; not shown: Twin-Strep-tag, C-terminal, kept
As to B2, the binding result in experiment [2] and in experiment [3] was “binds” in each case.

Broadly, the stoichiometry N is a count of units in the complex or per binding partner.
